Experimental data taken from paper PMC9949068 (bioRxiv, 2023).
Substitutions are numbered along the chain they refer to. Names and notes keep the numbering of the source.

How the values were obtained:
[1] = target: the molecule itself; test: cryo-EM structure
[2] = target: the molecule itself; test: negative stain EM

B1: human GLS2 (K253A), residues 38-602 (enzyme)
chain: HHLSEAAAQGRETPHSHQPQHQDHDSSESGMLSRLGDLLFYTIAEGQERIPIHKFTTALKATGLQTSDPRLRDCMSEMHRVVQESSSGGLLDRDLFRKCVSSNIVLLTQAFRKKFVIPDFEEFTGHVDRIFEDVKELTGGKVAAYIPQLAKSNPDLWGVSLCTVDGQRHSVGHTKIPFCLQSCVKPLTYAISISTLGTDYVHKFVGKEPSGLRYNALSLNEEGIPHNPMVNAGAIVVSSLIKMDCNKAEKFDFVLQYLNKMAGNEYMGFSNATFQSEKETGDRNYAIGYYLKEKKCFPKGVDMMAALDLYFQLCSVEVTCESGSVMAATLANGGICPITGESVLSAEAVRNTLSLMHSCGMYDFSGQFAFHVGLPAKSAVSGAILLVVPNVMGMMCLSPPLDKLGNSHRGTSFCQKLVSLFNFHNYDNLRHCARKLDPRREGAEIRNKTVVNLLFAAYSGDVSALRRFALSAMDMEQKDYDSRTALHVAAAEGHIEVVKFLIEACKVNPFAKDRWGNIPLDDAVQFNHLEVVKLLQDYQDSYTLSETQAEAAAEALSKENLESMV
[1]
  binding result: binds

B2: human GLS2 (N308A), residues 38-602 (enzyme)
chain: B1 chain with A216K, N271A
[2]
  binding result: binds
